# Results from patent US10463750.
# Key:
# [1] = target: 2C TCR (transgenic T cell receptor of CD8+ 2C T cells) (mouse); test: cell-based or functional assay
# [2] = target: Pmel TCR (tumor-antigen gp-100 specific transgenic TCR of CD8+ Pmel T cells) (mouse); test: cell-based or functional assay
substance,measurement,setting,value
1B2 (an anti-clonotypic 2C TCR-specific mAb; mouse IgG1 isotype) (antibody),"1B2/CD19 specific re-direction lysis of T2 cells, pre-targeted protocol, 51Cr release",[1],20 to 25%
same,PKH26/67 double positive cell conjugates (2C/T2 conjugate formation),[1],19.5%
same,"re-directional specific lysis window of T2 cells (1B2/CD19 minus 1B2 beads), co-culture, E:T 1:1, 51Cr release",[1],30%
same,"re-directional specific lysis window of T2 cells (1B2/CD19 minus 1B2 beads), co-culture, E:T 2:1, 51Cr release",[1],20%
same,"re-directional specific lysis window of T2 cells (1B2/CD19 minus 1B2 beads), co-culture, E:T 5:1, 51Cr release",[1],10%
same,"specific lysis of T2 cells, pre-targeted protocol (FIG. 4B), 51Cr release",[1],20%
GP 100 peptide loaded D^b-Ig dimer (from UniProt P61769 21-119) (peptide-MHC),"lysis of T2 cells, pre-targeted assay, E:T 10:1, 51Cr release",[2],< 40%
same,re-directional specific lysis window (Db-gp100-Ig/CD19 against Db-gp100-Ig beads),[2],5%
QL9 peptide loaded L^d-Ig dimer (from UniProt P61769 21-119) (peptide-MHC),"lysis of T2 cells, pre-targeted assay, E:T 10:1, 51Cr release",[1],< 20%
same,re-directional lysis specific window (Ld-QL9-Ig/CD19 against Ld-QL9-Ig beads),[1],< 15%
